Measurements reported in US20220119825A1, “SCALABLE PEPTIDE-GPCR INT[…] SYSTEMS” (THE TRUSTEES OF COLUMBIA UNIVERSITY IN THE CITY OF NEW YORK, priority 2019, published 2022).

Columns and labels:
Experiment in all cases: cell-based or functional assay
[1] = target: T1, Ca.Ste2, Ste2-like mating GPCR of Candida albicans (Candida albicans)
T1 chain: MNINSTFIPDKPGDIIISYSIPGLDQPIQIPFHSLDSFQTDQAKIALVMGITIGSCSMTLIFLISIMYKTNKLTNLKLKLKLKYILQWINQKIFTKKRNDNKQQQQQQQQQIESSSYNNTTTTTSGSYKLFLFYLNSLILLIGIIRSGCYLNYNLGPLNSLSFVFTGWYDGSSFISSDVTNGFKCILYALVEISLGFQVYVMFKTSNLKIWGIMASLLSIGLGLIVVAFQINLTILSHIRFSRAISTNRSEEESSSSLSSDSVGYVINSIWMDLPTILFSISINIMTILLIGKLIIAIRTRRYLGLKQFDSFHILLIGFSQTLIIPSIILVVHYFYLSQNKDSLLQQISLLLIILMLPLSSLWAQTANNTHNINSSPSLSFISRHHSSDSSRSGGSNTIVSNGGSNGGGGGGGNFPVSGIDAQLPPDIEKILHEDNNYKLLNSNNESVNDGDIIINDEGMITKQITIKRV

[2] = target: T2, Zr.Ste2, Ste2-like mating GPCR of Zygosaccharomyces rouxii (Zygosaccharomyces rouxii)
T2 chain: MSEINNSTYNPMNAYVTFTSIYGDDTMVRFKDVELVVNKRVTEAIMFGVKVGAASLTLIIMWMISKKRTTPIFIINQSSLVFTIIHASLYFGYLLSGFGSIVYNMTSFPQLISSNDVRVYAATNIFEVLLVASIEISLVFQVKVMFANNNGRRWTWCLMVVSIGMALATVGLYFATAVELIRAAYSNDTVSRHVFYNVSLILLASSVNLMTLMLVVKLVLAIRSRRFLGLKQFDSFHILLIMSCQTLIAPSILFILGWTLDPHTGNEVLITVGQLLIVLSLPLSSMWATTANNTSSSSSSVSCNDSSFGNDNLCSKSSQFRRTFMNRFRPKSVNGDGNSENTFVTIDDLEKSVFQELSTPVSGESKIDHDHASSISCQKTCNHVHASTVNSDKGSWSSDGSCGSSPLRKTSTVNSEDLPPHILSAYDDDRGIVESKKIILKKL

[3] = target: T3, Cg.Ste2, Ste2-like mating GPCR of Candida glabrata (Candida glabrata)
T3 chain: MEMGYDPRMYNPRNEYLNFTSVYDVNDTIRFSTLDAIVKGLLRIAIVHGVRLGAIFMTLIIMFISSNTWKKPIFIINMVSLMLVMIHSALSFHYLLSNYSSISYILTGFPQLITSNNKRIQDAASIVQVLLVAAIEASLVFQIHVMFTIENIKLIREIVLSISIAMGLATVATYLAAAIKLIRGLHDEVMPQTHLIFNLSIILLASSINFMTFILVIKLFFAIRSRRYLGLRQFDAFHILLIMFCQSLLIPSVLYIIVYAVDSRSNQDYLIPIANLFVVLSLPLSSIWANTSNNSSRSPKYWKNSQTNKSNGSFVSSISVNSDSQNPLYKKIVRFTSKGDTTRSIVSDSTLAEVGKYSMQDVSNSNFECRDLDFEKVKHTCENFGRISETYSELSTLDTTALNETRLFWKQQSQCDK

[4] = target: T4, Cau.Ste2, Ste2-like mating GPCR of Candida auris (Candida auris)
T4 chain: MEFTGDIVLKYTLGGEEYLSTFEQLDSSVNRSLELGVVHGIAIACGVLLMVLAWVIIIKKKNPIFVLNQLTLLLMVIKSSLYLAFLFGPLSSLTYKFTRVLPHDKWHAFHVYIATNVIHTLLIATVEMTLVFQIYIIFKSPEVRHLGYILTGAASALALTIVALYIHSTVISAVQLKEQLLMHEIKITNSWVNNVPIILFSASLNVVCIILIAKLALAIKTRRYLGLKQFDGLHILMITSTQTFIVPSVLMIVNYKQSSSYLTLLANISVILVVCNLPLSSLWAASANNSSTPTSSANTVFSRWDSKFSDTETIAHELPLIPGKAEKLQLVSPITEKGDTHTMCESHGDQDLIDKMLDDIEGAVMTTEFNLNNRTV

[5] = target: T5, Cgu.Ste2, Ste2-like mating GPCR of Candida (Pichia) guilliermondii (Candida (Pichia) guilliermondii)
T5 chain: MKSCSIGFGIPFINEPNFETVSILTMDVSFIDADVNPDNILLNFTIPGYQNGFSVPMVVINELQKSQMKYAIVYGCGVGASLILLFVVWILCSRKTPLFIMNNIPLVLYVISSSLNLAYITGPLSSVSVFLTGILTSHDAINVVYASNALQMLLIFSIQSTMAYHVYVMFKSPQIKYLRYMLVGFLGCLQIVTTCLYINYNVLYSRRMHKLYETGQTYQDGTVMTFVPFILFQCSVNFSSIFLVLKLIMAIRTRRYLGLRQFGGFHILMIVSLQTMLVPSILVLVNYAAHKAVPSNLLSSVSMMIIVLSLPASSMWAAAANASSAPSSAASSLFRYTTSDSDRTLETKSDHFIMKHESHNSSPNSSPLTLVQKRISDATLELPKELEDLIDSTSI

B1: Ca peptide ligand #1 GFRLTNFGYFEPG (peptide)
peptide: GFRLTNFGYFEPG
[1]
  Bttm (FUS1p-RFP reporter): 38.9 fluorescence/A600 (not printed)
  EC50 (FUS1p-RFP reporter): -7.7 log10 M (not printed)
  Fold Change (FUS1p-RFP reporter): 7 fold
  Span (FUS1p-RFP reporter): 233 fluorescence/A600 (not printed)
  Top (FUS1p-RFP reporter): 272 fluorescence/A600 (not printed)

B2: Zr peptide ligand #1 (Table 3: …) (peptide)
peptide: HFIELDPGQPMF
[2]
  Bttm (FUS1p-RFP reporter): 57.2 fluorescence/A600 (not printed)
  EC50 (FUS1p-RFP reporter): -7.4 log10 M (not printed)
  Fold Change (FUS1p-RFP reporter): 1.9 fold
  Span (FUS1p-RFP reporter): 52.7 fluorescence/A600 (not printed)
  Top (FUS1p-RFP reporter): 110 fluorescence/A600 (not printed)

B3: Cg peptide ligand #1 WHWVRLRKGQGLF (peptide)
peptide: WHWVRLRKGQGLF
[3]
  Bttm (FUS1p-RFP reporter): 30.5 fluorescence/A600 (not printed)
  EC50 (FUS1p-RFP reporter): -5.9 log10 M (not printed)
  Fold Change (FUS1p-RFP reporter): 7 fold
  Span (FUS1p-RFP reporter): 183 fluorescence/A600 (not printed)
  Top (FUS1p-RFP reporter): 214 fluorescence/A600 (not printed)

B4: Cau peptide ligand #1 KWGWLRFFPGEPFV (peptide)
peptide: KWGWLRFFPGEPFV
[4]
  Bttm (FUS1p-RFP reporter): 50.6 fluorescence/A600 (not printed)
  EC50 (FUS1p-RFP reporter): -8.1 log10 M (not printed)
  Fold Change (FUS1p-RFP reporter): 6.7 fold
  Span (FUS1p-RFP reporter): 286 fluorescence/A600 (not printed)
  Top (FUS1p-RFP reporter): 337 fluorescence/A600 (not printed)

B5: Cgu peptide ligand #1 KKNSRFLTYWFFQPIM (peptide)
peptide: KKNSRFLTYWFFQPIM
[5]
  Bttm (FUS1p-RFP reporter): 41.2 fluorescence/A600 (not printed)
  EC50 (FUS1p-RFP reporter): -7.4 log10 M (not printed)
  Fold Change (FUS1p-RFP reporter): 5.1 fold
  Span (FUS1p-RFP reporter): 170 fluorescence/A600 (not printed)
  Top (FUS1p-RFP reporter): 212 fluorescence/A600 (not printed)
